Experimental data as given in patent US20250059282A1 (University of Texas, published 2025).
Read-outs that look alike come from different tables or passages of the source.

T1: Cyno PD-L2-Fc (cynomolgus, UniProt A0A2K5U5Z4 20-220)
T1 construct: also called cynomolgus PD-L2; not shown: Fc
T1 sequence: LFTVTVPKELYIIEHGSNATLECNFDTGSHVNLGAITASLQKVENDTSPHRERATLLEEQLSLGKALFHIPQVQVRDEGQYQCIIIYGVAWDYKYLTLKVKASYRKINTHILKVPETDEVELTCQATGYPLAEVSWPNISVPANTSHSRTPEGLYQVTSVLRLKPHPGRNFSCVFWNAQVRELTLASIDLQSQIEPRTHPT

T2: Mouse PD-L2-Fc (mouse, UniProt Q9WUL5 20-219, limits assumed)
T2 construct: also called murine PD-L2; not shown: Fc
T2 sequence (looked up): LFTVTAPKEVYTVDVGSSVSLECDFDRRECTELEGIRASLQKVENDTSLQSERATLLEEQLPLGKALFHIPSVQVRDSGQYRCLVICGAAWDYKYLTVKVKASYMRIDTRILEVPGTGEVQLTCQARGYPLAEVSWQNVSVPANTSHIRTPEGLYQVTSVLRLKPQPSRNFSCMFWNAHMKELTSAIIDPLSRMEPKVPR

T3: Human PD-L2-HIS (human, UniProt Q9BQ51 20-220)
T3 construct: also called His-tagged human PD-L2; not shown: His tag
T3 sequence: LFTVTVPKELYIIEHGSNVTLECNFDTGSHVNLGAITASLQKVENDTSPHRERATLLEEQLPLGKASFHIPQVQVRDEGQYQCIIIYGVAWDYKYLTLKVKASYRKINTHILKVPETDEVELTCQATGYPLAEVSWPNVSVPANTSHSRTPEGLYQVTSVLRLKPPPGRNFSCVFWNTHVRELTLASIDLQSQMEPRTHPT

T4: Human PD-L2-Fc (human, UniProt Q9BQ51 20-220)
T4 construct: also called dimeric PD-L2; PD-L2 (dimeric ligand); not shown: human IgG1 Fc constant region
T4 sequence: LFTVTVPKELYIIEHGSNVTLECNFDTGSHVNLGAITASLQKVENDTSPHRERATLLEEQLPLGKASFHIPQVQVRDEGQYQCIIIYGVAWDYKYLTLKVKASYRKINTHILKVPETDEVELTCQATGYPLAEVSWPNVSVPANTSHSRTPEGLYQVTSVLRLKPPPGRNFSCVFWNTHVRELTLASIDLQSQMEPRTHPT

T5: Human b-PD-L2-His (human, UniProt Q9BQ51 20-220, biotinylated (b-); sites not stated)
T5 construct: Antigen of the MSD-SET measurements; also called biotinylated human PD-L2-His; not shown: His tag
T5 sequence: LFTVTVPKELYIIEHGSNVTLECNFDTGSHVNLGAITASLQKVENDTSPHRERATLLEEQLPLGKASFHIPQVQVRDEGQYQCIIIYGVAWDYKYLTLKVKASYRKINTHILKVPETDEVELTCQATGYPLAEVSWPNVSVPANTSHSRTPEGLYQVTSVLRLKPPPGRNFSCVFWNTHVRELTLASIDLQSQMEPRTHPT


How the values were obtained:
[1] = target: T6, Cyno PD-L1-Fc (cynomolgus, UniProt G7PSE7 19-238); assay: ForteBio, IgG, avid
T6 construct: also called cynomolgus PD-L1

[2] = target: T1, Cyno PD-L2-Fc; assay: ForteBio, IgG, avid
[3] = target: T7, Mouse PD-L1-Fc (mouse, UniProt Q9EP73 19-239, limits assumed); assay: ForteBio, IgG, avid
T7 construct: also called murine PD-L1; not shown: Fc

[4] = target: T2, Mouse PD-L2-Fc; assay: ForteBio, IgG, avid
[5] = target: T8, Human PD-L1-HIS (human, UniProt Q9NZQ7 19-238); assay: ForteBio, IgG, monovalent
T8 construct: also called HIS-tagged monovalent PD-L1; His-tagged human PD-L1; not shown: His tag

[6] = target: T3, Human PD-L2-HIS; assay: ForteBio, IgG, monovalent
[7] = target: T4, Human PD-L2-Fc; assay: ForteBio Octet, Fab, monovalent
Experimental: (§1) ForteBio KD measurements—ForteBio affinity measurements were performed on an Octet® RED384 generally as previously described (see, e.g., Estep et al., 2013). Briefly, ForteBio affinity measurements were performed by loading IgGs on-line onto AHQ sensors. Sensors were equilibrated off-line in assay buffer for 30 min and then monitored on-line for 60 seconds for baseline establishment. Sensors with loaded IgGs were exposed to 100 nM antigen for 3 minutes, and afterwards were transferred to assay buffer for 3 min for off-rate measurement. For monovalent affinity assessment Fabs were used instead of IgGs. For this assessment the […] Fc fusion antigen was loaded on-line onto the AHQ sensors. Sensors were equilibrated off-line in assay buffer for 30 min and then monitored on-line for 60 seconds for baseline establishment. Sensors with loaded antigen were exposed to 100 nM Fab for 3 minutes, and afterwards they were transferred to assay buffer for 3 min for off-rate measurement. All kinetics were analyzed using the 1:1 binding model.

[8] = target: T5, Human b-PD-L2-His; assay: MSD-SET, Fab, monovalent
Experimental: Briefly, solution equilibrium titrations (SET) were performed in PBS +0.1% IgG-Free BSA (PBSF) with antigen held constant at 50 pM and incubated with 3- to 5-fold serial dilutions of Fab starting at 20 nM. Antibodies (20 nM in PBS) were coated onto standard bind MSD®-ECL plates overnight at 4° C. or at room temperature for 30 min. Plates were then blocked by BSA for 30 min with shaking at 700 rpm, followed by three washes with wash buffer (PBSF+0.05% Tween 20). SET samples were applied and incubated on the plates for 150 s with shaking at 700 rpm followed by one wash. Antigen captured on a plate was detected with 250 ng/mL sulfotag-labeled streptavidin in PBSF by incubation on the plate for 3 min. The plates were washed three times with wash buffer and then read on the MSD® Sector Imager 2400 instrument using 1× Read Buffer T with surfactant. The percent free antigen was plotted as a function of titrated antibody in Prism and fit to a quadratic equation to extract the KD. To improve throughput, liquid handling robots were used throughout MSD®-SET experiments, including SET sample preparation.

[9] = target: T9, Human PD-L1-Fc (human, UniProt Q9NZQ7 19-238); assay: ForteBio, Fab, monovalent
T9 construct: also called dimeric PD-L1; PD-L1 (dimeric ligand); not shown: human IgG1 Fc constant region
Experimental: as §1

[10] = target: T4, Human PD-L2-Fc; assay: ForteBio, Fab, monovalent
Experimental: as §1

[11] = target: T6, Cyno PD-L1-Fc; assay: ForteBio, IgG, avid; remark: listed apart in the source
[12] = target: T1, Cyno PD-L2-Fc; assay: ForteBio, IgG, avid; remark: listed apart in the source
[13] = target: T7, Mouse PD-L1-Fc; assay: ForteBio, IgG, avid; remark: listed apart in the source
[14] = target: T2, Mouse PD-L2-Fc; assay: ForteBio, IgG, avid; remark: listed apart in the source
[15] = target: T8, Human PD-L1-HIS; assay: ForteBio, IgG, monovalent; remark: listed apart in the source
[16] = target: T3, Human PD-L2-HIS; assay: ForteBio, IgG, monovalent; remark: listed apart in the source

T7 sequence (Q9EP73 19-239 limits assumed): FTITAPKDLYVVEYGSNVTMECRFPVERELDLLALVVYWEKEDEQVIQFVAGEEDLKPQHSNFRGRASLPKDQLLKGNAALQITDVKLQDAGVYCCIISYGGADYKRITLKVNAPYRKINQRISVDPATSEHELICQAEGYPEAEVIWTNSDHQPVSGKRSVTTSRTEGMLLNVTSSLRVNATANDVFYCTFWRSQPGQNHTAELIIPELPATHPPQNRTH
T6 sequence (G7PSE7 entry or part of it limits assumed): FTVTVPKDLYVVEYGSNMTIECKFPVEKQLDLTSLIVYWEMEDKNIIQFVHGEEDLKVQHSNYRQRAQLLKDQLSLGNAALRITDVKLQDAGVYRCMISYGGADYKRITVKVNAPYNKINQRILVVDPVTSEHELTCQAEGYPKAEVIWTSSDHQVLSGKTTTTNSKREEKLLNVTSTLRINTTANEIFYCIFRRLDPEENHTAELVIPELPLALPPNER
T8 sequence (Q9NZQ7 19-238 limits assumed): as the sequence (G7PSE7 entry or part of it limits assumed) above, with T33A, S34A, N62S, Q68R, R82Q, L173F, A185T, I192T, L215H counted along it
T9 sequence (Q9NZQ7 19-238 limits assumed): as the sequence (G7PSE7 entry or part of it limits assumed) above, with T33A, S34A, N62S, Q68R, R82Q, L173F, A185T, I192T, L215H counted along it

Kd [1] [nM]	Kd [2] [nM]	Kd [3] [nM]	Kd [4] [nM]	Kd [5] [nM]	Kd [6] [nM]	Binder	also measured
0.431	0.677	31.6	0.484	17.8	0.844	BiPDL3-34 (antibody, V domains shown, IgG; also called ADI-37468; 37468) VH: QVQLQQWGAGLLKPSETLSLTCAVYGGSLSGYPWSWIRQPPGKGLEWIGETDVSGWTDYNPSLKSRVTISVDTSKNQFSLKLSSVTAADTAVYYCARDGRRMGTPSFDIWGQGTMVTVSS VL: DIQMTQSPSSVSASVGDRVTITCRASQDISSFLAWYQQKPGKAPKLLIYAASSLQDGVPSRFSGSGSGTDFTLTISSLQPEDFATYYCQKSVYFPPTFGGGTKVEIK	–
–	–	–	–	–	–	BiPDL3-13 Fab (Fab, V domains shown, Fab made by papain digestion of the IgG) VH: QVQLQQWGAGLLKPSETLSLTCAVYGGSLSGYPWSWIRQPPGKGLEWIGETDVSGWTDYNPSLKSRVTISVDTSKNQFSLKLSSVTAADTAVYYCARDGRRMGTPSFDIWGQGTMVTVSS VL: DIQLTQSPSSVSASVGDRVTITCRASQGISSWLAWYQQKPGKAPKLLIYAASSLQSGVPSRFSGSGSGTDFTLTISSLQPEDFATYYCQQYVYFPPTFGGGTKVEIK	Kd [7]: 16 nM
0.396	0.605	2.65	0.553	13.4	0.868	BiPDL3-24 (antibody, V domains shown, IgG; also called ADI-37465; 37465) VH: QVQLQQWGAGLLKPSETLSLTCAVYGGSLSGYPWSWIRQPPGKGLEWIGETDVSGWTDYNPSLKSRVTISVDTSKNQFSLKLSSVTAADTAVYYCARDGRRMGTPSFDIWGQGTMVTVSS VL: DIQMTQSPSSVSASVGDRVTITCRASQGISNFLAWYQQKPGKAPKLLIYAASSLQSGVPSRFSGSGSGTDFTLTISSLQPEDFATYYCQKAVYFPPTFGGGTKVEIK	–
0.455	0.603	42	0.552	30.2	1.45	BiPDL3-44 (antibody, V domains shown, IgG; also called ADI-37475; 37475) VH: QVQLQQWGAGLLKPSETLSLTCAVYGGSLSGYPWSWIRQPPGKGLEWIGETDVSGWTDYNPSLKSRVTISVDTSKNQFSLKLSSVTAADTAVYYCARDGRRMGTPSFDIWGQGTMVTVSS VL: DIQMTQSPSSVSASVGDRVTITCRASQGISTFLAWYQQKPGKAPKLLIYAASALHSGVPSRFSGSGSGTDFTLTISSLQPEDFATYYCQRAVYFPPTFGGGTKVEIK	–
–	–	–	–	–	–	BiPDL4-44 Fab (Fab, V domains shown, Fab made by papain digestion of the IgG) VH: QVQLVESGGGVIQPGRSLRLSCAASGFTFSAYLMHWVRQAPGKGLEWVAAIGYDGMNKYYADSVKGRFTISRDNSKNTLYLQMNSLRAEDTAVYYCARAGIEYSYAYTDYWGQGTLVTVSS VL: EIVLTQSPGTLSLSPGERATLSCRASHSVVSSYLAWYQQKPGQAPRLLIYGASSREDGIPDRFSGSGSGTDFTLTISRLEPEDFAVYYCVQFGWWPPRTFGGGTKVEIK	Kd [8]: 0.15 nM; Kd [9]: 6 nM; Kd [10]: 0.437 nM
–	–	–	–	–	–	BiPDL4-24 Fab (Fab, V domains shown, Fab made by papain digestion of the IgG) VH: QVQLVESGGGVVQPGRSLRLSCAASGFTFDEYGMHWVRQAPGKGLEWVAVIGYDGLNKYYADSVKGRFTISRDNSKNTLYLQMNSLRAEDTAVYYCARAGIEYSYAYTDYWGQGTLVTVSS VL: EIVLTQSPGTLSLSPGERATLSCRASNSVVSSYLAWYQQKPGQAPRLLIYGAASRANGIPDRFSGSGSGTDFTLTISRLEPEDFAVYYCVQFGWWPPRTFGGGTKVEIK	Kd [8]: 0.12 nM; Kd [9]: 6.57 nM; Kd [10]: 0.475 nM
–	–	–	–	–	–	BiPDL4-24 (antibody, V domains shown, Fourth generation, IgG) VH: QVQLVESGGGVVQPGRSLRLSCAASGFTFDEYGMHWVRQAPGKGLEWVAVIGYDGLNKYYADSVKGRFTISRDNSKNTLYLQMNSLRAEDTAVYYCARAGIEYSYAYTDYWGQGTLVTVSS VL: EIVLTQSPGTLSLSPGERATLSCRASNSVVSSYLAWYQQKPGQAPRLLIYGAASRANGIPDRFSGSGSGTDFTLTISRLEPEDFAVYYCVQFGWWPPRTFGGGTKVEIK	Kd [11]: 0.838 nM; Kd [12]: 0.458 nM; Kd [13]: 0.677 nM; Kd [14]: 6.77 nM; Kd [15]: 7.24 nM; Kd [16]: 0.497 nM
